Tests used:
mCherry-LacI-H3 = mCherry-LacI-H3 (UniProt P68431); test: F2H (live cell imaging, recruitment to LacO array); conditions: n=20; parent: est. 1.7; read off a plot
MBP H3 116–135 (human) = test: ITC; MicroCal iTC200; sNASP (180, 150, 100 μM) in the syringe injected into MBP H3 116–135 (30, 15, 10 μM) in the cell; 20 mM Hepes-KOH pH 7.5, 200 mM sodium chloride; one-site model

| other: enrichment ratio (mCherry-LacI-H3) | Kd (MBP H3 116–135 (human)) [nM] | stoichiometry N (MBP H3 116–135 (human)) | Substance |
| --- | --- | --- | --- |
| 1.2 |  |  | EGFP-sNASP (from UniProt P49321-2) E211A; E215A; E217A |
| 1.1 |  |  | EGFP-sNASP (from UniProt P49321-2) E246A; Y249S; L253S |
|  | 47 to 68 | 1 | sNASP (from UniProt P49321-2 1-449) (natural protein; other documents disagree on this pair) |
